Source: paper doi:10.64898/2025.12.03.691989 (bioRxiv, 2025)

Experiments:
[1] = biological target: T1, human UBA1 (human, UniProt P22314 1-1058); assay: MST
T1 sequence (looked up): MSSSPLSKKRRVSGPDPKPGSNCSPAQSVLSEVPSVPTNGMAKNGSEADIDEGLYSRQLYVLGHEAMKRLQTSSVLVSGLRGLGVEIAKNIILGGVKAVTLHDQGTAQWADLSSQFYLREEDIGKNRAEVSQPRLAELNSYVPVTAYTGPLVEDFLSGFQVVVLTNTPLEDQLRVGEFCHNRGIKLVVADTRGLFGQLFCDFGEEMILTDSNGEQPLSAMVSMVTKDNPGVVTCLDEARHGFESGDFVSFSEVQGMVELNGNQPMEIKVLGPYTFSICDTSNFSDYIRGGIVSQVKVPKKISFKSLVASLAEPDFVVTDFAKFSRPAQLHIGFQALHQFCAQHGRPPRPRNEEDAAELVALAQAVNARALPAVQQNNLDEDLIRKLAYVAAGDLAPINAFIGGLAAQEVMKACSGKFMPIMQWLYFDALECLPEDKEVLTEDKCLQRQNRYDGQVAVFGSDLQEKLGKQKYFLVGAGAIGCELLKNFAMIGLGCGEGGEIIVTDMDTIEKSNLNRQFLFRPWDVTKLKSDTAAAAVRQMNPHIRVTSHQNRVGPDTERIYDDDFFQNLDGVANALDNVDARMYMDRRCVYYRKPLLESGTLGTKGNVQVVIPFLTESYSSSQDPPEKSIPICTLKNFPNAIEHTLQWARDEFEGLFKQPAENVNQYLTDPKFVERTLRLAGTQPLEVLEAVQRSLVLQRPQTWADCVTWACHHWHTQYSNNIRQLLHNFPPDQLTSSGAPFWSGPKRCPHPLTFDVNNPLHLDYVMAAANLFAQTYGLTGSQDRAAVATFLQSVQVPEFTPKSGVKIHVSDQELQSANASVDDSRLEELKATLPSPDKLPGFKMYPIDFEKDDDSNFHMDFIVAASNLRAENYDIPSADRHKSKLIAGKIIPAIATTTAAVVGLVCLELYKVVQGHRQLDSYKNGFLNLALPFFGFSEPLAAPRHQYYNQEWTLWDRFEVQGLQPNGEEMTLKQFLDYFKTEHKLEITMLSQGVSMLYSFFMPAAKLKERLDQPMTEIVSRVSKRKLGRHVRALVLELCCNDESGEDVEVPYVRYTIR

[2] = biological target: T2, human UBA6 (full-length, amino acid residues 1-1052) (human, UniProt A0AVT1 1-1052); assay: MST
T2 sequence (looked up): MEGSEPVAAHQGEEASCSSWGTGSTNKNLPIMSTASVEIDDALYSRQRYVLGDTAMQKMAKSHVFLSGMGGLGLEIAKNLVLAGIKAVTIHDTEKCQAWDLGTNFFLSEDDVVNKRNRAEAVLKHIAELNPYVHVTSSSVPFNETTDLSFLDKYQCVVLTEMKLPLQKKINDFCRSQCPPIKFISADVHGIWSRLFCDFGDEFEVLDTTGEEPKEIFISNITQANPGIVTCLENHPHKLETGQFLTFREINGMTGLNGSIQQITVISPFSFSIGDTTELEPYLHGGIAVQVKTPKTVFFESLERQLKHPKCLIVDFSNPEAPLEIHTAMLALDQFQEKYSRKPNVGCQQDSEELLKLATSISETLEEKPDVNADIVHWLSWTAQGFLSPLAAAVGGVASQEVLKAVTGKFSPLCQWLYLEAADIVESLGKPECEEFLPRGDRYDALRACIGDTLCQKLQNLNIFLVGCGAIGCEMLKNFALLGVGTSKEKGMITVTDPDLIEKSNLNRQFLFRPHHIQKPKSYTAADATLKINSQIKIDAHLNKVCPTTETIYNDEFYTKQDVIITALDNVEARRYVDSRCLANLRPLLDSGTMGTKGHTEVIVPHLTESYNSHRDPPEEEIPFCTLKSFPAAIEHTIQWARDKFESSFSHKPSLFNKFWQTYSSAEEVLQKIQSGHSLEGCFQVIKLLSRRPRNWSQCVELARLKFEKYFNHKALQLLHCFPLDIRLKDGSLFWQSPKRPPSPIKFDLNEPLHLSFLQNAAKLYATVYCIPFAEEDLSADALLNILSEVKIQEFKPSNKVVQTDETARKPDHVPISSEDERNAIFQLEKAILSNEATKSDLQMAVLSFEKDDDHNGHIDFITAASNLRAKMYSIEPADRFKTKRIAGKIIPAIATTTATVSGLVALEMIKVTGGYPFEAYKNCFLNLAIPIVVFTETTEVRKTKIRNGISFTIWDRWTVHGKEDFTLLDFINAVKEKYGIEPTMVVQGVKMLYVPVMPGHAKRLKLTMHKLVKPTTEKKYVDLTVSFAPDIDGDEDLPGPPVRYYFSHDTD

B1: BIRC6 UBC domain (amino acid residues 4520-4857) (domain or fragment)
chain: not shown
[1]
  Kd: 13 µM
[2]
  Kd: 23 µM
